This is an account of results in the supplement of paper PMC10567573.

B1: NETO1 (parent)
chain: KTSLLDQLTNTSGTVIGVTSCIVI
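Note: lentivirally expressed fusions sorted by FACS into six bins by GFP to DsRed ratio, PSI derived from sequencing read proportions per bin multiplied by bin number.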

Variants of B1 are the subject of this data set. In words: protein stability index of a GFP-peptide fusion (GPS, HEK-293T) (PSI 1-6); higher = more stable. Conditions: c terminus: a fixed tail appended.
As for KTSLLDQLINTSGTVIGVTSCIVI [T9I], the protein stability index turned out to be 2.33. On to KTSLLDQLGNTSGTVIGVTSCIVI [T9G], for which the protein stability index amounted to 2.29. The value for KTSLLDQLDNTSGTVIGVTSCIVI [T9D] was 2.58; that for KTSLLDQLNNTSGTVIGVTSCIVI [T9N] was 3.29. With KTSLLDQLSNTSGTVIGVTSCIVI [T9S] the figure was 2.72; with KTSLLDQLPNTSGTVIGVTSCIVI [T9P], 2.6. Take KTSLLDQLMNTSGTVIGVTSCIVI [T9M]: the protein stability index amounted to 2.4. Turning to KTSLLDQLCNTSGTVIGVTSCIVI [T9C], the protein stability index worked out at 3.21.

As for KTSLLDQLTNTSETVIGVTSCIVI [G13E], the protein stability index is 3.52. The value for KTSLLDQLTNTSITVIGVTSCIVI [G13I] was 2.57; that for KTSLLDQLTNTSDTVIGVTSCIVI [G13D] was 2.26; that for KTSLLDQLTNTSYTVIGVTSCIVI [G13Y] was 3.2. With KTSLLDQLTNTSSTVIGVTSCIVI [G13S] the figure was 3.19; with KTSLLDQLTNTSCTVIGVTSCIVI [G13C], 2.5; with KTSLLDQLTNTSLTVIGVTSCIVI [G13L], 2.42. For the variant KTSLLDQLTNTSTTVIGVTSCIVI [G13T], the protein stability index turned out to be 2.23. KTSLLDQLTNTSKTVIGVTSCIVI [G13K]: the protein stability index came out at 2.9. Regarding KTSLLDQLTNTSMTVIGVTSCIVI [G13M], the protein stability index was 3.17. With KTSLLDQLTNTSFTVIGVTSCIVI [G13F] the figure was 3.7. KTSLLDQLTNTSPTVIGVTSCIVI [G13P]: the protein stability index amounted to 2.94. The value for KTSLLDQLTNTSWTVIGVTSCIVI [G13W] was 3.1; that for KTSLLDQLTNTSVTVIGVTSCIVI [G13V] was 2.66; that for KTSLLDQLTNTSATVIGVTSCIVI [G13A] was 2.12. KTSLLDQLTNTSNTVIGVTSCIVI [G13N]: the protein stability index came to 3.9. The value for KTSLLDQLTNTSRTVIGVTSCIVI [G13R] was 3.34; that for KTSLLDQLTNTSHTVIGVTSCIVI [G13H] was 2.65. As to KTSLLDMLTNTSGTVIGVTSCIVI [Q7M], the protein stability index was 2.37. Take KTSLLDHLTNTSGTVIGVTSCIVI [Q7H]: the protein stability index turned out to be 4.35. With KTSLLDFLTNTSGTVIGVTSCIVI [Q7F] the figure was 2.62. On to KTSLLDSLTNTSGTVIGVTSCIVI [Q7S], for which the protein stability index stood at 2.36. With KTSLLDALTNTSGTVIGVTSCIVI [Q7A] the figure was 2.92; with KTSLLDLLTNTSGTVIGVTSCIVI [Q7L], 3.27. The value for KTSLLDYLTNTSGTVIGVTSCIVI [Q7Y] was 2.47; that for KTSLLDILTNTSGTVIGVTSCIVI [Q7I] was 2.08.

KTSLLDDLTNTSGTVIGVTSCIVI [Q7D]: the protein stability index was found to be 3.75.

On to KTSLLDWLTNTSGTVIGVTSCIVI [Q7W], for which the protein stability index worked out at 2.18. The value for KTSLLDPLTNTSGTVIGVTSCIVI [Q7P] was 2.88.

For KTSLLDVLTNTSGTVIGVTSCIVI [Q7V], the protein stability index stood at 3.45. With KTSLLDRLTNTSGTVIGVTSCIVI [Q7R] the figure was 1.64; with KTSLLDGLTNTSGTVIGVTSCIVI [Q7G], 3.62.

Take KTSLLDKLTNTSGTVIGVTSCIVI [Q7K]: the protein stability index was determined as 2.87. The value for KTSLLDTLTNTSGTVIGVTSCIVI [Q7T] was 2.05. The value for KTSLLDCLTNTSGTVIGVTSCIVI [Q7C] was 2.94; that for KTSLLDNLTNTSGTVIGVTSCIVI [Q7N] was 3.77; that for KTSLLDELTNTSGTVIGVTSCIVI [Q7E] was 2.27. With KTSLLNQLTNTSGTVIGVTSCIVI [D6N] the figure was 2.37; with KTSLLVQLTNTSGTVIGVTSCIVI [D6V], 2.61. As to KTSLLYQLTNTSGTVIGVTSCIVI [D6Y], the protein stability index is 3.38. The value for KTSLLPQLTNTSGTVIGVTSCIVI [D6P] was 1.82. With KTSLLWQLTNTSGTVIGVTSCIVI [D6W] the figure was 3.03; with KTSLLLQLTNTSGTVIGVTSCIVI [D6L], 2.92; with KTSLLQQLTNTSGTVIGVTSCIVI [D6Q], 2.18.

Regarding KTSLLRQLTNTSGTVIGVTSCIVI [D6R], the protein stability index is 3.02. With KTSLLTQLTNTSGTVIGVTSCIVI [D6T], the protein stability index was 3.2. As to KTSLLSQLTNTSGTVIGVTSCIVI [D6S], the protein stability index worked out at 2.52. The value for KTSLLMQLTNTSGTVIGVTSCIVI [D6M] was 2.53; that for KTSLLDQLTNTSGYVIGVTSCIVI [T14Y] was 2.64; that for KTSLLDQLTNTSGMVIGVTSCIVI [T14M] was 2.62. With KTSLLDQLTNTSGPVIGVTSCIVI [T14P] the figure was 2.69. The value for KTSLLDQLTNTSGEVIGVTSCIVI [T14E] was 3.18; that for KTSLLDQLTNTSGSVIGVTSCIVI [T14S] was 1.94; that for KTSLLDQLTNTSGQVIGVTSCIVI [T14Q] was 3.41.

As to KTSLLDQLTNTSGNVIGVTSCIVI [T14N], the protein stability index turned out to be 2.98. Turning to KTSLLDQLTNTSGIVIGVTSCIVI [T14I], the protein stability index was 2.98. With KTSLLDQLTNTSGFVIGVTSCIVI [T14F] the figure was 2.82; with KTSLLDQLTNTSGVVIGVTSCIVI [T14V], 3.29; with KTSLLDQLTNTSGWVIGVTSCIVI [T14W], 2.37. On to KTSLLDQLTNTSGCVIGVTSCIVI [T14C], for which the protein stability index came to 2.61. As to KTSLLDQLTNTSGAVIGVTSCIVI [T14A], the protein stability index worked out at 2.03. With KTSLLDQLTNTSGDVIGVTSCIVI [T14D] the figure was 2.58; with KTSLLDQLTNTSGKVIGVTSCIVI [T14K], 3.88. For the variant KTSLLDQLTNTSGRVIGVTSCIVI [T14R], the protein stability index was determined as 3.41.

For KTSLLDQLTNTSGLVIGVTSCIVI [T14L], the protein stability index is 2.47. On to KTSLLDQLTNTSGGVIGVTSCIVI [T14G], for which the protein stability index is 2.11.

As for KTSLLDQLTNTSGHVIGVTSCIVI [T14H], the protein stability index was found to be 2.62. For the variant KTSLLDQWTNTSGTVIGVTSCIVI [L8W], the protein stability index was 3.83. The value for KTSLLDQMTNTSGTVIGVTSCIVI [L8M] was 2.83; that for KTSLLDQETNTSGTVIGVTSCIVI [L8E] was 2.35. With KTSLLDQHTNTSGTVIGVTSCIVI [L8H] the figure was 3.66; with KTSLLDQQTNTSGTVIGVTSCIVI [L8Q], 3.09; with KTSLLDQYTNTSGTVIGVTSCIVI [L8Y], 3.41. As to KTSLLDQKTNTSGTVIGVTSCIVI [L8K], the protein stability index amounted to 2.99. The value for KTSLLDQNTNTSGTVIGVTSCIVI [L8N] was 2.56.

As to KTSLLDQSTNTSGTVIGVTSCIVI [L8S], the protein stability index worked out at 3.3. With KTSLLDQRTNTSGTVIGVTSCIVI [L8R], the protein stability index is 3.04. Turning to KTSLLDQDTNTSGTVIGVTSCIVI [L8D], the protein stability index was 3.02.

On to KTSLLDQGTNTSGTVIGVTSCIVI [L8G], for which the protein stability index was 2. With KTSLLDQCTNTSGTVIGVTSCIVI [L8C] the figure was 3.29; with KTSLLDQITNTSGTVIGVTSCIVI [L8I], 3.38. In the case of KTSLLDQTTNTSGTVIGVTSCIVI [L8T], the protein stability index was 3.48. For KTSLLDQVTNTSGTVIGVTSCIVI [L8V], the protein stability index worked out at 3.52.

Turning to KTSLLDQPTNTSGTVIGVTSCIVI [L8P], the protein stability index was 2.5. Take KTSLLDQATNTSGTVIGVTSCIVI [L8A]: the protein stability index turned out to be 2.76. On to KTSLLDQFTNTSGTVIGVTSCIVI [L8F], for which the protein stability index was 2.71.
